Measured values published in PMC10786891, “Massively parallel profiling of RNA-targeting CRISPR-Cas13d”.
Changes are numbered by the printed parent chain. Numbers in names are those of the source.

T1: EsCas13d, nuclease-dead (Eubacterium siraeum, UniProt B0MS50, R295A;H300A;R849A;H854A)
T1 sequence: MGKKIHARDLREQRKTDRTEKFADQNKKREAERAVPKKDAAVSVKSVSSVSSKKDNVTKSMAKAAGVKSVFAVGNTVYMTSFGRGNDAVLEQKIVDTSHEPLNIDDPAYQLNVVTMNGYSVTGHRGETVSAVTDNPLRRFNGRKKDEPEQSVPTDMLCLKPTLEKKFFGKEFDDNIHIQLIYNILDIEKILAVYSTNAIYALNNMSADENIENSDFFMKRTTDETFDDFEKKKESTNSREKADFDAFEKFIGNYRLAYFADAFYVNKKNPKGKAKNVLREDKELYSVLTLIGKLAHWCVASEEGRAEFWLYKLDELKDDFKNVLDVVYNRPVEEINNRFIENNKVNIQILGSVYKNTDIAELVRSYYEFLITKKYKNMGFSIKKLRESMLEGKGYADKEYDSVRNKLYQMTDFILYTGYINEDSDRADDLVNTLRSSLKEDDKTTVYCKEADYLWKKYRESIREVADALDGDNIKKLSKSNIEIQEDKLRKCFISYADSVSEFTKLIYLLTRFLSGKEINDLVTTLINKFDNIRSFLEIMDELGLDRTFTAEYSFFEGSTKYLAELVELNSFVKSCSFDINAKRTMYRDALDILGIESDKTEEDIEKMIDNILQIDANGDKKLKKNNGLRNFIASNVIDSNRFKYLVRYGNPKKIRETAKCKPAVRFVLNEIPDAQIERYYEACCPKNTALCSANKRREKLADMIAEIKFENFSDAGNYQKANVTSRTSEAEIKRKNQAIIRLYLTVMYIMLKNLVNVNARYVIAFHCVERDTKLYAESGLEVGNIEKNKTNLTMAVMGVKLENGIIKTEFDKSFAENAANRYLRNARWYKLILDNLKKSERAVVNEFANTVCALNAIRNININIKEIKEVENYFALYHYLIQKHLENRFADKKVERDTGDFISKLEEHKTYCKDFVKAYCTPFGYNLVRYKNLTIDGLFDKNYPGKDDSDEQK

B1: target 1 insC 3' of 22,insU 3' of 9 (mixed)
RNA 1: CACCCGUGCAAAAAUGCAGGGGUCUAAAACUGAGCGGAUAACCUCUCUAUGG
RNA 2: GGGAAUGGAUCCACAUCUACGAAUUCGUACCCAUAGAGAGGUUAUUCCGCUCACCGAGAUCGGAAGAGCACACGU
B2: target 1 insG 3' of 1 (mixed)
RNA 1: B1 RNA 1
RNA 2: GGGAAUGGAUCCACAUCUACGAAUUCGUACCAUAGAGAGGUUAUCCGCUCAGCCGAGAUCGGAAGAGCACACGU
B3: target 1 insA 3' of 13,insA 3' of 5 (mixed)
RNA 1: B1 RNA 1
RNA 2: GGGAAUGGAUCCACAUCUACGAAUUCGUACCAUAGAGAGAGUUAUCCGACUCACCGAGAUCGGAAGAGCACACGU
B4: target 1 C6A,G15C (mixed)
RNA 1: B1 RNA 1
RNA 2: GGGAAUGGAUCCACAUCUACGAAUUCGUACCAUAGACAGGUUAUCAGCUCACCGAGAUCGGAAGAGCACACGU
B5: target 1 insU 3' of 18,insU 3' of 13 (mixed)
RNA 1: B1 RNA 1
RNA 2: B1 RNA 2 with C32A, A33U, U34A, A35U, G41U, U42G, A44U, U45A
B6: target 1 insC 3' of 14,insA 3' of 5 (mixed)
RNA 1: B1 RNA 1
RNA 2: B3 RNA 2 with G39C, A40G
B7: target 1 insG 3' of 14,insU 3' of 6 (mixed)
RNA 1: B1 RNA 1
RNA 2: B3 RNA 2 with A40G, G48U, A49G
B8: target 1 insU 3' of 13,insA 3' of 10 (mixed)
RNA 1: B1 RNA 1
RNA 2: B3 RNA 2 with A40U, U45A, C46U, G48C, A49G
B9: target 1 C4A,G12A (mixed)
RNA 1: B1 RNA 1
RNA 2: B4 RNA 2 with C37G, G40A, A46C, C48A
B10: target 1 insG 3' of 10,insU 3' of 9 (mixed)
RNA 1: B1 RNA 1
RNA 2: B3 RNA 2 with A40G, G41U, U43G, C46U, G48C, A49G
B11: target 1 insA 3' of 19,insU 3' of 18 (mixed)
RNA 1: B1 RNA 1
RNA 2: B3 RNA 2 with G35A, A36U, U42G, A44U, U45A, C46U, G48C, A49G
B12: target 1 insU 3' of 20,insA 3' of 8 (mixed)
RNA 1: B1 RNA 1
RNA 2: B1 RNA 2 with C32A, A33U, U46A
B13: target 1 insC 3' of 12,insC 3' of 11 (mixed)
RNA 1: B1 RNA 1
RNA 2: B3 RNA 2 with A40G, G41C, U43C, A44U, U45A, C46U, G48C, A49G
B14: target 1 insC 3' of 11,insG 3' of 11 (mixed)
RNA 1: B1 RNA 1
RNA 2: B3 RNA 2 with A40G, G41U, U42C, U43G, A44U, U45A, C46U, G48C, A49G
B15: target 1 C7U,A14U (mixed)
RNA 1: B1 RNA 1
RNA 2: B4 RNA 2 with C37G, A38U, C45U, A46C
B16: target 1 insG 3' of 11,insG 3' of 9 (mixed)
RNA 1: B1 RNA 1
RNA 2: B3 RNA 2 with A40G, G41U, U42G, U45G, C46U, G48C, A49G
B17: target 1 G5C,A18U (mixed)
RNA 1: B1 RNA 1
RNA 2: B4 RNA 2 with A34U, C37G, A46C, G47C
B18: target 1 insC 3' of 17,insG 3' of 8 (mixed)
RNA 1: B1 RNA 1
RNA 2: B1 RNA 2 with C32A, A33U, U34A, A35G, G36C, U46G
B19: target 1 insA 3' of 19,insU 3' of 2 (mixed)
RNA 1: B1 RNA 1
RNA 2: B1 RNA 2 with C32A, A33U, U34A, U46C, C48G, G49C, C50U, U51C, C52U
B20: target 1 A16C,C22U (mixed)
RNA 1: B1 RNA 1
RNA 2: B4 RNA 2 with C30U, A36C, C37G, A46C
B21: target 1 C7A,U19A (mixed)
RNA 1: B1 RNA 1
RNA 2: B4 RNA 2 with U33A, C37G, C45A, A46C
B22: target 1 G12A,A16C (mixed)
RNA 1: B1 RNA 1
RNA 2: B4 RNA 2 with A36C, C37G, G40A, A46C
B23: target 1 insG 3' of 14,insC 3' of 10 (mixed)
RNA 1: B1 RNA 1
RNA 2: B3 RNA 2 with A40G, A44C, U45A, C46U, G48C, A49G
B24: target 1 C4U,C6G (mixed)
RNA 1: B1 RNA 1
RNA 2: B4 RNA 2 with C37G, A46G, C48U
B25: target 1 insU 3' of 12,insA 3' of 4 (mixed)
RNA 1: B1 RNA 1
RNA 2: B3 RNA 2 with A40G, G41U, A49C, C50A
B26: target 1 insG 3' of 14,insU 3' of 7 (mixed)
RNA 1: B1 RNA 1
RNA 2: B3 RNA 2 with A40G, C47U, G48C, A49G
B27: target 1 A9C,G17U (mixed)
RNA 1: B1 RNA 1
RNA 2: B4 RNA 2 with G35U, C37G, A43C, A46C
B28: target 1 C6U,C22A (mixed)
RNA 1: B1 RNA 1
RNA 2: B4 RNA 2 with C30A, C37G, A46U
B29: target 1 U11A,A20C (mixed)
RNA 1: B1 RNA 1
RNA 2: B4 RNA 2 with A32C, C37G, U41A, A46C
B30: target 1 insA 3' of 6,insU 3' of 6 (mixed)
RNA 1: B1 RNA 1
RNA 2: B3 RNA 2 with A40G, G41U, U43A, A44U, U45C, C47A, G48U, A49G
B31: target 1 del2,del5 (mixed)
RNA 1: B1 RNA 1
RNA 2: GGGAAUGGAUCCACAUCUACGAAUUCGUACCAUAGAGAGGUUAUCCCUACCGAGAUCGGAAGAGCACACGU
B32: target 1 C2G,C7U (mixed)
RNA 1: B1 RNA 1
RNA 2: B4 RNA 2 with C37G, C45U, A46C, C50G

These binders were tested against T1, EsCas13d, nuclease-dead (assay: crRNA (strand 1, pre-loaded); Mg2+; 40 mM Tris-HCl pH 7.5, 150 mM NaCl, 6 mM MgCl2, 1 mM DTT, 0.1% Tween-20, 0.2 mg/ml BSA; 25 C; 10 min per concentration, then washed). Conditions: tags: His6-TwinStrep-SUMO cleaved; N-terminal SNAP kept (SNAP-Surface 488); label: 3' end held by stalled T7 RNA polymerase.

Binder | Kd
B1 | 30 ± 5 nM
B2 | 9 ± 0.7 nM
B3 | 3.4 ± 0.5 nM
B4 | 56 ± 6 nM
B5 | 38 ± 14 nM
B6 | ~60 nM
B7 | 39 ± 6 nM
B8 | 26 ± 5 nM
B9 | 4.9 ± 0.5 nM
B10 | 18.1 ± 1.4 nM
B11 | 32 ± 1.6 nM
B12 | 25.3 ± 2 nM
B13 | 17 ± 2.8 nM
B14 | 42 ± 4 nM
B15 | 37 ± 5 nM
B16 | 17.2 ± 0.6 nM

Binder | Kd
B17 | 27 ± 4 nM
B18 | 58 ± 16 nM
B19 | 23 ± 2 nM
B20 | 57 ± 12 nM
B21 | 48 ± 5 nM
B22 | 36 ± 3.3 nM
B23 | 47 ± 12 nM
B24 | 5.28 ± 0.32 nM
B25 | 6.6 ± 0.8 nM
B26 | 18.5 ± 1.2 nM
B27 | 62 ± 23 nM
B28 | 15.8 ± 1.4 nM
B29 | 80 ± 40 nM
B30 | 28.9 ± 1.4 nM
B31 | 16.9 ± 1 nM
B32 | 3.82 ± 0.29 nM
